The record followed here is IntAct's records for PubMed 25126958.

Sequences and labels used below:
B1: Cell division control protein 45 (Saccharomyces cerevisiae), Q08032 (parent)
chain: MYYGISQFSEAYNKILRNSSSHSSCQLVIFVSCLNIDALCATKMLSLLFKKQLVQSQIVPIFGYSELRRHYSQLDDNINSLLLVGFGGVIDLEAFLEIDPQEYVIDTDEKSGEQSFRRDIYVLDAHRPWNLDNIFGSQIIQCFDDGTVDDTLGEQKEAYYKLLELDEESGDDELSGDENDNNGGDDEATDADEVTDEDEEDEDETISNKRGNSSIGPNDLSKRKQRKKQIHEYEGVLEEYYSQGTTVVNSISAQIYSLLSAIGETNLSNLWLNILGTTSLDIAYAQVYNRLYPLLQDEVKRLTPSSRNSVKTPDTLTLNIQPDYYLFLLRHSSLYDSFYYSNYVNAKLSLWNENGKKRLHKMFARMGIPLSTAQETWLYMDHSIKRELGIIFDKNLDRYGLQDIIRDGFVRTLGYRGSISASEFVEALTALLEVGNSTDKDSVKINNDNNDDTDGEEEEDNSAQKLTNLRKRWVSNFWLSWDALDDRKVELLNRGIQLAQDLQRAIFNTGVAILEKKLIKHLRIYRLCVLQDGPDLDLYRNPLTLLRLGNWLIECCAESEDKQLLPMVLASIDENTDTYLVAGLTPRYPRGLDTIHTKKPILNNFSMAFQQITAETDAKVRIDNFESSIIEIRREDLSPFLEKLTLSGLL
partner: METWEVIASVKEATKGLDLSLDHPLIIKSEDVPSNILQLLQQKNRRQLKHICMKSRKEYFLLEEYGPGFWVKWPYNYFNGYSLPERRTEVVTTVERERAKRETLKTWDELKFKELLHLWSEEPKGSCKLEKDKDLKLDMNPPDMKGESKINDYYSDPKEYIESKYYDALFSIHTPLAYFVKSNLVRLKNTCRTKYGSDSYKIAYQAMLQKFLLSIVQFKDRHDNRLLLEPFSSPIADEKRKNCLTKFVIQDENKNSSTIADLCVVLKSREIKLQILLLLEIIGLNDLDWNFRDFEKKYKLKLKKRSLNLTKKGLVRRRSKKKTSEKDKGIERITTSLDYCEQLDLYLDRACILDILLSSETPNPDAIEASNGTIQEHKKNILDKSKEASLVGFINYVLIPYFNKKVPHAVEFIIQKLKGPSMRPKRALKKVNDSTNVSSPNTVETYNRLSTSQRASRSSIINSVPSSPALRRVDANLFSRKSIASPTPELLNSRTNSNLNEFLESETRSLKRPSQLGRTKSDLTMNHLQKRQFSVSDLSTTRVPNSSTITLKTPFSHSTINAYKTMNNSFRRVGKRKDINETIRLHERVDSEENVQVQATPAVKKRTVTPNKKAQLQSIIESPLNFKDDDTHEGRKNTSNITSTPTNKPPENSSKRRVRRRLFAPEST

In this assay the parent is B1. The settings on record: with sld3_yeast SLD3, P53135.
D91N;D124N;D149N;D150N: the “effect of a mutation on the interaction” value was “disrupting interaction strength”.
